Results reported in publication PMC6733452.

Legend:
Assay in all cases: cross-linking + ELISA
[1] = biological target: TcpP-HSV (wild-type, from pEK41) (V. cholerae) (UniProt P29485)
[2] = biological target: TcpP-K102E (V. cholerae) (UniProt P29485)
[3] = biological target: TcpP-N99D (V. cholerae) (UniProt P29485)

| Substance | percent reduction in TcpP interaction relative to wild-type ToxR [1] | other results |
| --- | --- | --- |
| ToxR-L107A (chromosomally expressed) (from UniProt P15795 1-294) (natural protein) | 70% |  |
| ToxR (wild-type, expressed from the chromosomal toxR locus) (from UniProt P15795 1-294) (natural protein) |  | percent reduction in ToxR interaction relative to wild-type TcpP-HSV [2]: 50%; percent reduction in ToxR interaction relative to wild-type TcpP-HSV [3]: 50% |
| ToxR-V97A (chromosomally expressed) (from UniProt P15795 1-294) (natural protein) |  | percent defect in TcpP interaction relative to wild-type ToxR [1]: > 60% |
| ToxR-T91A (chromosomally expressed) (from UniProt P15795 1-294) (natural protein) | 45% |  |
| ToxR-Y96A (chromosomally expressed) (from UniProt P15795 1-294) (natural protein) | 40% |  |
